Here are results for 1 molecule from US20050287542A1 (YALE UNIVERSITY, published 2005).

The target in this assay is T1, GST-KIXY650A (Y650A variant of CBP KIX) (UniProt P45481 586-665, limits assumed).
T1 construct: domain: KIX; not shown: GST tag
The assay is described as follows: fluorescence polarization, 25 nM fluorescein-labelled peptide, GST-KIXY650A titrated. Background: In fluorescence polarisation assays a small probe gives low polarisation when free and higher when bound to something large.

Ends that are not written are not given here.

T1 sequence (P45481 586-665 Y650A limits assumed): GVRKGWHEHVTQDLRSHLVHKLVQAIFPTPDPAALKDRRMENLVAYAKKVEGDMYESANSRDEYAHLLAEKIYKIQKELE

In the case of GISWPTFEGDDAPVRRLSFFYILLDLYLDAPGVC(acetamidofluorescein)-NH2 (designed binder, also called PPKID6 (unphosphorylated)) [PPKID6^U], the “EC50 (read off the curve)” value is ~700 nM.

One may read the EC50 (read off the curve) as the concentration needed to bring the measured effect to its halfway point. Lower therefore signals greater potency.
